Measured values taken from PMC9852224.

What was measured:
BAK = BAK (UniProt Q16611); experiment: FLAG co-immunoprecipitation, immunoblot; conditions: reference: WT-FLAG-MCL-1; sites T163
Noxa = Noxa (UniProt Q13794); experiment: FLAG co-immunoprecipitation, immunoblot; conditions: reference: WT-FLAG-MCL-1; sites T163
[1] = molecular target: Mule (preparation of Supplemental Figure 3D, not told) (UniProt Q7Z6Z7)

Row | Substance | binding against the reference (BAK) | binding against the reference (Noxa) | stoichiometry N [1]
1 | Mcl-1 (from UniProt Q07820) T163A-FLAG-MCL-1 | lost | lost | –
2 | Mule (preparation of Supplemental Figure 3D, not told) (from UniProt Q7Z6Z7 1-4374) (natural protein) | – | – | 2
